Among the data in patent US20230212304A1 (BIOSION, published 2023) are Kd, koff and kon values, retold here.

The assay has as its target T1, recombinant human CTLA4-his protein (Acro biosystems, Cat#CT4-H5229) (human, UniProt P16410 37-162).
T1 construct: bought recombinant protein; not shown: his tag
T1 sequence (looked up): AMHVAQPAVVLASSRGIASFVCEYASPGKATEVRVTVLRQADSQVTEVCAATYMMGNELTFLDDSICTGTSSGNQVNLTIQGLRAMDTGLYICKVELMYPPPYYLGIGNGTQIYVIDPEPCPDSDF
The assay is described as follows: BLI, Octet; antibody from cell supernatant on AHC sensor, CTLA4-his as analyte. Here is the method:
Briefly, AHC biosensors (anti-human IgG Fc capture, from ForteBio) were presoaked with 10 mM glycine (pH 1.5) for 3 seconds, and then dipped in a well with running buffer (0.5% w/v BSA in PBST) for 3 seconds, the soaking and dipping steps were repeated for three times. […] A new baseline was run for 180 seconds in another well with running buffer. […] Finally, sensors were presoaked with 10 mM glycine (pH 1.5) for 3 seconds, and then were dipped in a well with running buffer for 3 seconds, the soaking and dipping steps repeated for three times. The association and dissociation curves were fit to a 1:1 Langmuir binding model using ForteBio Data Analysis 8.1.
In general terms: Biolayer interferometry detects binding as a change in optical thickness at a sensor tip.

Usually Kd stands for the equilibrium constant for the complex coming apart. As usually defined, the koff is the first-order rate constant of dissociation. For orientation: kon means the second-order rate constant of association.

B1: huC1D1-V5 (antibody, human IgG4 S228P, kappa, V domains shown)
VH: EVQLVESGGGLVQPGRSLRLSCTASGFTFSDNWMNWVRQAPGKGLEWVAQIRNKPYNYETYYSDSVKGRFTISRDDSKSIVYLQMNSLKTEDTAVYYCTGGMDYWGQGTTVTVSS
VL: DIQMTQSPSSLSASVGDRVTITCGASEIIYGALNWYQQKPGKSPKLLIYGATNLADGVPSRFSGSGSGTDFTLTISSLQPEDVATYYCQKILSPPPWTFGGGTKVEIKR
notes: humanized IgG4/kappa; tested as 293F cell supernatant on Octet; also called hu CTLA4 C1D1-V5
B1: the Kd came to 2.08 nM, the koff was 0.000476 s⁻¹ and the on-rate (kon) was determined as 229000 M⁻¹ s⁻¹.

B2: huC1D1-V9 (antibody, human IgG4 S228P, kappa, V domains shown)
VH: EVQLVESGGGLVQPGRSLRLSCTASGFTFSDNWMNWVRQAPGKGLEWVAQIRNKPYNYETYYSDSVKGRFTISRDDSKSIVYLQMNSLKTEDTAVYYCTGGMDYWGQGTTVTVSS
VL: DIQMTQSPSSLSASVGDRVTITCGASEIIYGALNWYQQKPGKVPKLLIYGATNLADGVPSRFSGSGSGTDFTLTISSLQPEDVATYYCQKILSPPPWTFGGGTKVEIKR
notes: humanized IgG4/kappa; tested as 293F cell supernatant on Octet; also called hu CTLA4 C1D1-V9
In the case of B2, the dissociation constant (Kd) came to 0.736 nM, the koff came to 0.000228 s⁻¹ and the kon was 310000 M⁻¹ s⁻¹.

B3: huC1D1-V6 (antibody, human IgG4 S228P, kappa, V domains shown)
VH: EVQLVESGGGLVQPGRSLRLSCTASGFTFSDNWMNWVRQAPGKGLEWVAQIRNKPYNYETYYSDSVKGRFTISRDDSKSIAYLQMNSLKTEDTAVYYCTGGMDYWGQGTTVTVSS
VL: DIQMTQSPSSLSASVGDRVTITCGASEIIYGALNWYQQKPGKSPKLLIYGATNLADGVPSRFSGSGSGTDFTLTISSLQPEDVATYYCQKILSPPPWTFGGGTKVEIKR
notes: humanized IgG4/kappa; tested as 293F cell supernatant on Octet; also called hu CTLA4 C1D1-V6
In the case of B3, the dissociation constant Kd stood at 0.821 nM, the dissociation rate constant (koff) came to 0.000287 s⁻¹ and the kon worked out at 349000 M⁻¹ s⁻¹.

B4: huC1D1-V1 (antibody, human IgG4 S228P, kappa, V domains shown)
VH: EVQLVESGGGLVQPGRSLRLSCTASGFTFSDNWMNWVRQAPGKGLEWVAQIRNKPYNYETYYSDSVKGRFTISRDDSKSIVYLQMNSLKTEDTAVYYCTGGMDYWGQGTTVTVSS
VL: DIQMTQSPSSLSASVGDRVTITCGASEIIYGALNWYQQKPGKSPKLLIYGATNLADGMPSRFSGSGSGRDYTLTISSLQPEDVATYYCQKILSPPPWTFGGGTKVEIKR
notes: humanized IgG4/kappa; tested as 293F cell supernatant on Octet; also called huCTLA4 C1D1-V1
For B4, the Kd amounted to 0.184 nM, the off-rate (koff) stood at 4.61e-05 s⁻¹ and the kon turned out to be 250000 M⁻¹ s⁻¹.

B5: huC1D1-V2 (antibody, human IgG4 S228P, kappa, V domains shown)
VH: EVQLVESGGGLVQPGRSLRLSCTASGFTFSDNWMNWVRQAPGKGLEWVAQIRNKPYNYETYYSDSVKGRFTISRDDSKSIAYLQMNSLKTEDTAVYYCTGGMDYWGQGTTVTVSS
VL: DIQMTQSPSSLSASVGDRVTITCGASEIIYGALNWYQQKPGKSPKLLIYGATNLADGMPSRFSGSGSGRDYTLTISSLQPEDVATYYCQKILSPPPWTFGGGTKVEIKR
notes: humanized IgG4/kappa; tested as 293F cell supernatant on Octet; also called hu CTLA4 C1D1-V2
In the case of B5, the Kd was determined as 0.559 nM, the koff worked out at 0.000149 s⁻¹ and the kon was 267000 M⁻¹ s⁻¹.

B6: huC1D1-V11 (antibody, human IgG4 S228P, kappa, V domains shown)
VH: EVQLVESGGGLVQPGRSLRLSCTASGFTFSDNWMNWVRQAPGKGLEWVGQIRNKPYNYETYYSDSVKGRFTISRDDSKSIVYLQMNSLKTEDTAVYYCTGGMDYWGQGTTVTVSS
VL: DIQMTQSPSSLSASVGDRVTITCGASEIIYGALNWYQQKPGKVPKLLIYGATNLADGVPSRFSGSGSGTDFTLTISSLQPEDVATYYCQKILSPPPWTFGGGTKVEIKR
notes: humanized IgG4/kappa; tested as 293F cell supernatant on Octet; also called hu CTLA4 C1D1-V11
In the case of B6, the Kd is 1.25 nM, the dissociation rate constant (koff) came out at 0.000457 s⁻¹ and the association rate constant (kon) was found to be 365000 M⁻¹ s⁻¹.

B7: huC1D1-V12 (antibody, human IgG4 S228P, kappa, V domains shown)
VH: EVQLVESGGGLVQPGRSLRLSCTASGFTFSDNWMNWVRQAPGKGLEWVGQIRNKPYNYETYYSDSVKGRFTISRDDSKSIAYLQMNSLKTEDTAVYYCTGGMDYWGQGTTVTVSS
VL: DIQMTQSPSSLSASVGDRVTITCGASEIIYGALNWYQQKPGKVPKLLIYGATNLADGVPSRFSGSGSGTDFTLTISSLQPEDVATYYCQKILSPPPWTFGGGTKVEIKR
notes: humanized IgG4/kappa; tested as 293F cell supernatant on Octet; also called hu CTLA4 C1D1-V12; huC1D1-VI2
Regarding B7, the dissociation constant (Kd) turned out to be 0.995 nM, the dissociation rate constant (koff) stood at 0.000304 s⁻¹ and the on-rate constant (kon) worked out at 306000 M⁻¹ s⁻¹.

B8: huC1D1-V10 (antibody, human IgG4 S228P, kappa, V domains shown)
VH: EVQLVESGGGLVQPGRSLRLSCTASGFTFSDNWMNWVRQAPGKGLEWVAQIRNKPYNYETYYSDSVKGRFTISRDDSKSIAYLQMNSLKTEDTAVYYCTGGMDYWGQGTTVTVSS
VL: DIQMTQSPSSLSASVGDRVTITCGASEIIYGALNWYQQKPGKVPKLLIYGATNLADGVPSRFSGSGSGTDFTLTISSLQPEDVATYYCQKILSPPPWTFGGGTKVEIKR
notes: humanized IgG4/kappa; tested as 293F cell supernatant on Octet; also called hu CTLA4 C1D1-V10
For B8, the Kd was 0.943 nM, the dissociation rate constant (koff) came out at 0.000304 s⁻¹ and the kon was determined as 322000 M⁻¹ s⁻¹.

B9: huC1D1-V3 (antibody, human IgG4 S228P, kappa, V domains shown)
VH: EVQLVESGGGLVQPGRSLRLSCTASGFTFSDNWMNWVRQAPGKGLEWVGQIRNKPYNYETYYSDSVKGRFTISRDDSKSIVYLQMNSLKTEDTAVYYCTGGMDYWGQGTTVTVSS
VL: DIQMTQSPSSLSASVGDRVTITCGASEIIYGALNWYQQKPGKSPKLLIYGATNLADGMPSRFSGSGSGRDYTLTISSLQPEDVATYYCQKILSPPPWTFGGGTKVEIKR
notes: humanized IgG4/kappa; tested as 293F cell supernatant on Octet; also called hu CTLA4 C1D1-V3
Take B9: the Kd turned out to be 1.16 nM, the off-rate constant (koff) amounted to 0.000259 s⁻¹ and the association rate constant (kon) amounted to 224000 M⁻¹ s⁻¹.

B10: huC1D1-V4 (antibody, human IgG4 S228P, kappa, V domains shown)
VH: EVQLVESGGGLVQPGRSLRLSCTASGFTFSDNWMNWVRQAPGKGLEWVGQIRNKPYNYETYYSDSVKGRFTISRDDSKSIAYLQMNSLKTEDTAVYYCTGGMDYWGQGTTVTVSS
VL: DIQMTQSPSSLSASVGDRVTITCGASEIIYGALNWYQQKPGKSPKLLIYGATNLADGMPSRFSGSGSGRDYTLTISSLQPEDVATYYCQKILSPPPWTFGGGTKVEIKR
notes: humanized IgG4/kappa; tested as 293F cell supernatant on Octet; also called hu CTLA4 C1D1-V4
On to B10, for which the equilibrium dissociation constant (Kd) is 0.952 nM, the koff is 0.000229 s⁻¹ and the kon was 240000 M⁻¹ s⁻¹.

B11: huC1D1-V7 (antibody, human IgG4 S228P, kappa, V domains shown)
VH: EVQLVESGGGLVQPGRSLRLSCTASGFTFSDNWMNWVRQAPGKGLEWVGQIRNKPYNYETYYSDSVKGRFTISRDDSKSIVYLQMNSLKTEDTAVYYCTGGMDYWGQGTTVTVSS
VL: DIQMTQSPSSLSASVGDRVTITCGASEIIYGALNWYQQKPGKSPKLLIYGATNLADGVPSRFSGSGSGTDFTLTISSLQPEDVATYYCQKILSPPPWTFGGGTKVEIKR
notes: humanized IgG4/kappa; tested as 293F cell supernatant on Octet; also called hu CTLA4 C1D1-V7
For B11, the Kd was determined as 0.362 nM, the off-rate constant (koff) was 0.000169 s⁻¹ and the kon amounted to 466000 M⁻¹ s⁻¹.

B12: huD1D5-V7 (antibody, human IgG4 S228P, kappa, V domains shown)
VH: EVQLVESGGGLVKPGGSLRLSCAASGFTFSDYGMAWVRQAPGKGLEWVAFISNLAYSVYYADTETGRFTISRDDAKNSLYLQMNSLRAEDTAVYYCARSGLPYAMDYWGQGTTVTVSS
VL: DIQMTQSPSSLSASVGDRVTITCRASQDISNYLNWYQQKPGKVPKLLIYYISRLHSGVPSRFSGSGSGTDFTLTISSLQPEDVATYFCQQGRMLPWTFGGGTKVEIKR
notes: humanized IgG4/kappa; tested as 293F cell supernatant on Octet; also called hu CTLA4 D1D5-V7
As to B12, the Kd turned out to be 10.2 nM, the koff came out at 0.000857 s⁻¹ and the association rate constant (kon) turned out to be 83900 M⁻¹ s⁻¹.

B13: huD1D5-V1 (antibody, human IgG4 S228P, kappa, V domains shown)
VH: EVQLVESGGGLVKPGGSLRLSCAASGFTFSDYGMAWVRQAPGKGPEWVAFISNLAYSVYYADTETGRFTISRDDAKNSLYLQMNSLRAEDTAVYYCARSGLPYAMDYWGQGTTVTVSS
VL: DIQMTQSPSSLSASVGDRVTITCRASQDISNYLNWYQQKPGKTVKLLIYYISRLHSGVPSRFSGSGSGTDFTLTISSLQPEDVATYFCQQGRMLPWTFGGGTKVEIKR
notes: humanized IgG4/kappa; tested as 293F cell supernatant on Octet; also called huCTLA4 D1D5-V1
In the case of B13, the dissociation constant Kd was less than 0.001 nM, the dissociation rate constant (koff) was less than 1e-07 s⁻¹ and the kon was determined as 82000 M⁻¹ s⁻¹.
